Measured values from paper PMC4860004.

Biological target: IRΔβ (human insulin receptor ectodomain construct, (αβ)2 homodimer) (human) (UniProt P06213)
Assay: crystal structure

“IRΔβ (human insulin receptor ectodomain construct, (αβ)2 homodimer) (from UniProt P06213-2 28-1370)” was tested, and the stoichiometry N was 2.
